{
  "source": "paper PMC2191694",
  "binders": {"B1": {"name": "IL2-OAP/mOCT (dsDNA)", "DNA 1": "TTGAAAATATGTGTAATATAATACTCATTT", "DNA 2": "AAATGAGTATTATATTACACATATTTTCAA"}, "B2": {"name": "IL2-mOAP/OCT (dsDNA)", "DNA 1": "TTGAAAATATTTTTAATATGTAAAACATTT", "DNA 2": "AAATGTTTTACATATTAAAAATATTTTCAA"}, "B3": {"name": "IL2-deltaOAP/OCT (dsDNA)", "DNA 1": "ATATGTAAAACATTT", "DNA 2": "AAATGTTTTACATAT"}},
  "key": {"Oct-2 [1]": {"target": "T1, Oct-2 (UniProt P09086 1-479)", "T1 sequence (P09086 whole entry)": "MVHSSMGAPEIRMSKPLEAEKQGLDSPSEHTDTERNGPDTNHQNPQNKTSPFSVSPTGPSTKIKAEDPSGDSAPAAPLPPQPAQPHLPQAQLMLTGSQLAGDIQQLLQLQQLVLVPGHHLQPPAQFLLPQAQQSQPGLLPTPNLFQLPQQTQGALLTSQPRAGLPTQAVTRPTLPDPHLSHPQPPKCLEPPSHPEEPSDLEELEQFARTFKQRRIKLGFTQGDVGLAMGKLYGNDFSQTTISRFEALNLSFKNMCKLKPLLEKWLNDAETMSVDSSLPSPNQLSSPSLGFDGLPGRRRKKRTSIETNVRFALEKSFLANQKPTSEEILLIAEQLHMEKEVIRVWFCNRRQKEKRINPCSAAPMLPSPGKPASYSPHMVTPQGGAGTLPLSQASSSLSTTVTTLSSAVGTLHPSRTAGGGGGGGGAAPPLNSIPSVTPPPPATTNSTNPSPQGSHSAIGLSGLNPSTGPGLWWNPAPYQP", "test": "competition"}, "Oct-2 [2]": {"target": "T1, Oct-2", "test": "competition", "remark": "listed apart in the source"}, "Oct-2 [3]": {"target": "T1, Oct-2", "test": "EMSA"}},
  "data": [
    {"binder": "B1", "values": [
      {"measurement": "binding result", "setting": "Oct-2 [1]", "value": "no binding"}
    ]},
    {"binder": "B2", "values": [
      {"measurement": "binding result", "setting": "Oct-2 [2]", "value": "binds"}
    ]},
    {"binder": "B3", "values": [
      {"measurement": "binding result", "setting": "Oct-2 [3]", "value": "binds"}
    ]}
  ]
}
